Test results as given in PMC6447857, “Structural Study of Agmatine Iminohydrolase From Medicago truncatula, the Second Enzyme of the Agmatine Route of Putrescine Biosynthesis in Plants” (Frontiers in Plant Science, 2019).

Biological target: the molecule itself
Assay: SEC-MALS; in-line SEC (WTC-015S5 column) with MALS detector, 5.5 mg/ml MtAIH solution loaded; monomer to dimer

B1: agmatine iminohydrolase from Medicago truncatula (enzyme)
chain: SNAHGFHMPAEWEPHSQCWIGWPERADNWRDGAVHAQLVFTRVAAAISRFEKVTVCASSAQWENARNQLPDHVRVVEISSNDSWFRDIGPTFVVRRETSKSDDAEHRIAGIDWTFNSWGGLEDGCYCDWSLDSLVKKKILDVERIPRFSHSMVLEGGSIHVDGEGTCITTEECLLNKNRNPHLSKSQIEDELKAYLGVRKVIWLPRGLYGDDDTNGHVDNMCCFVRPGAVLLSWTDDKTDPQYERSEEAYSLFSSVTDANGRKFEVIKLHVPGPLYMTEKEAAGVFQDDGAKPRLPGTRLAASYVNFYIANGAIIAPQFGDKKWDDEAIRVLSKTFPHHEVVGIEGSREIVLSGGNIHCITQQQPAI
notes: Ser-Asn-Ala linker from the vector pMCSG68 that is not cleaved from the expressed protein; agmatine iminohydrolase, Medicago truncatula, UniProt G7JT50, open reading frame MTR_4g112810, encoded protein starting from codon number 11 to the end; theoretical mass of the construct 41.2 kDa; Homodimer by MALS, SAXS and in both crystal forms; In 6NIC the protein holds the small molecule …
- stoichiometry N: 2
